# T1: human OGT construct (hOGT4.5) containing 4.5 TPR units and the catalytic domain (human, UniProt O15294-3 313-1031)
# T1 sequence (looked up): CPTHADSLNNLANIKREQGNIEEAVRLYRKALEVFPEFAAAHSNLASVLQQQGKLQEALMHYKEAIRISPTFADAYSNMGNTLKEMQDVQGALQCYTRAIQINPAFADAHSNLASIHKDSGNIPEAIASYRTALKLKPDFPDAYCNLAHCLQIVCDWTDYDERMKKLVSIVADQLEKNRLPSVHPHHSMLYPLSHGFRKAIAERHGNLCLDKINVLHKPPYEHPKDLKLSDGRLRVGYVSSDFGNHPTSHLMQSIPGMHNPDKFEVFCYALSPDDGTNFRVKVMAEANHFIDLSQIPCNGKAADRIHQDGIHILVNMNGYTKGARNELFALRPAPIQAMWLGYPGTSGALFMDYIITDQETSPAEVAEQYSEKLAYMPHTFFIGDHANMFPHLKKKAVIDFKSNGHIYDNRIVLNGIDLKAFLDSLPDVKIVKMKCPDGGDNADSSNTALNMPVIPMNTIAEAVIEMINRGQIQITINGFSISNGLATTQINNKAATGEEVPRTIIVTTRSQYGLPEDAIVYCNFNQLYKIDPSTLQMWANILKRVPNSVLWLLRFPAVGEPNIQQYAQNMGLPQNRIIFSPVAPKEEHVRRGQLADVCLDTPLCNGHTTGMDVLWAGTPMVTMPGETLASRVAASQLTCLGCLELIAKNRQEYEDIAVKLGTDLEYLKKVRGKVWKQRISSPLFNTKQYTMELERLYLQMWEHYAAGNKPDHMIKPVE
# Target: T1, human OGT construct (hOGT4.5) …
# Experiment: crystal structure
binder,measurement,value
YPGGSTPVSSANMM [14 residue-CKII peptide substrate],binding result,binds

# — publication PMC3064491 (Nature, 2011)
